Experimental data reported in US20190375831A1 (US Dept. of Health and Human Services, published 2019).

What was measured:
[1] = biological target: T1, recombinant PfCSP (rPfCSP, residues 21-375) (Plasmodium falciparum, UniProt P19597 21-375); test: ITC, first binding event
T1 construct: also called recombinant wild type PfCSP; not shown: C-terminal Avi-tag, HRV3C-processing tag and His-purification tag

[2] = biological target: T1, recombinant PfCSP (rPfCSP, residues …); test: ITC, second binding event
[3] = biological target: T2, PfCSP on P. falciparum sporozoites (PfSPZ) (Plasmodium falciparum, UniProt P19597 19-374); test: ELISA on coated PfSPZ, OD405nm
[4] = biological target: T1, recombinant PfCSP (rPfCSP, residues …); test: ELISA on coated rPfCSP, OD405nm
[5] = biological target: T1, recombinant PfCSP (rPfCSP, residues …); test: biolayer interferometry, biotinylated CSP on the sensor, whole IgG in solution; apparent KD
[6] = biological target: T2, PfCSP on P. falciparum sporozoites …; test: immunofluorescence assay on PfSPZ
[7] = biological target: T1, recombinant PfCSP (rPfCSP, residues …); test: ITC, CIS43 Fab injected into rPfCSP, two sets of sites, first set
[8] = biological target: T1, recombinant PfCSP (rPfCSP, residues …); test: ITC, CIS43 Fab injected into rPfCSP, two sets of sites, second set
[9] = biological target: T1, recombinant PfCSP (rPfCSP, residues …); test: ITC, one binding event
[10] = biological target: T1, recombinant PfCSP (rPfCSP, residues …); test: ITC, mAb injected into rPfCSP, one set of sites (Kd = 51 nM)
[11] = biological target: T1, recombinant PfCSP (rPfCSP, residues …); test: ITC, mAb injected into rPfCSP, one set of sites (Kd = […] nM)
[12] = biological target: T1, recombinant PfCSP (rPfCSP, residues …); test: ITC, mAb injected into rPfCSP, one set of sites (Kd = […] nM)

T2 sequence (P19597 19-374 limits assumed): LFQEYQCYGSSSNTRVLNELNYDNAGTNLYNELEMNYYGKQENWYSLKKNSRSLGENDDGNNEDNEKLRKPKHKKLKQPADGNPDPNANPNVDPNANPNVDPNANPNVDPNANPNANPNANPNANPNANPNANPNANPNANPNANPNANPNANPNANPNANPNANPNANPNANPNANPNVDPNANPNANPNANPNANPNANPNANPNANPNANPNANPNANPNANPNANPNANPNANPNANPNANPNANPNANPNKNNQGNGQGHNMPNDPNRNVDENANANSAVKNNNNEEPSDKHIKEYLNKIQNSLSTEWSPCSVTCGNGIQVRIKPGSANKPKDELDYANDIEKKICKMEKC
T1 sequence (P19597 21-375): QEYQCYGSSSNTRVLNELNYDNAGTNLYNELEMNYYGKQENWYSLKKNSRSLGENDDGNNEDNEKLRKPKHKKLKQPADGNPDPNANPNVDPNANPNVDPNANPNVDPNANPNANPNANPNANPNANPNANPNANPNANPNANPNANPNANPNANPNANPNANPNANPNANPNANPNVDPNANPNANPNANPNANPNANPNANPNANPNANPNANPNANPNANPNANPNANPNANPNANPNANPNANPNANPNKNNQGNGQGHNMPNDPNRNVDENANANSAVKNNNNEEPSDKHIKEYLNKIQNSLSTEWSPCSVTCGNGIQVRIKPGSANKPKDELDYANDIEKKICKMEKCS

B1: mAb CIS34 (antibody, human IgG1, kappa, V domains shown)
VH: QVQLVESGGGVVQPGRSLRLSCAASGFTFSSYGIHWVRQAPGKGLEWVAVIWYDGSKKYYGDSVKGRFTISRDNSKNTLYLQMNSLRVEDTAVYYCARAVIAATGTRGYWFDPWGQGTLVTVSS
VL: DIIMTQSPVSLSASVGDRVTITCRASQSISSHLNWYQQKPGKAPKLLIYAASSLQSGVPSRFSGSGSGTDFTLTISSLQPEDFATYSCQQTYRGFTFAPGTKVDIKR
In the case of B1, the Kd [1] is reported as 31 nM, the Kd [2] is reported as 80 nM and the binding result [3] is reported as “binds”. For the same binder, the “EC50 (read off the curve)” value [4] was roughly 3 ng/mL and the Kd [5] was 1.5 nM.

B2: CIS04 (antibody, V domains shown)
VH: QVQLVQSGAEVKKPGASVKVSCKASGYTFTSYAIHWVRQAPGQRLEWMGWIKAGNGDTRYSQKFQGRVTITRDTSATTAYMELSSLRSEDTAVYYCGLLTVLTPDDAFDIWGQGTMVTVSS
VL: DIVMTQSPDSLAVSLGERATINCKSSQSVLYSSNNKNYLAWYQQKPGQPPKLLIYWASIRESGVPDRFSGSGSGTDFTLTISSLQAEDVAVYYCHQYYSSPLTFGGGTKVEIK
notes: also called mAb CIS04
B2: binds [6].

B3: CIS43 Fab (Fab, V domains shown)
VH: QVQLVQSGAEVKKPGASVKVSCKASGYTFTSYAIHWVRQAPGQRLEWMGWIKAGNGNTRYSQKFQDRVTITRDTSTTTAYMELSSLRSEDTAVYYCALLTVLTPDDAFDIWGQGTMVTVSS
VL: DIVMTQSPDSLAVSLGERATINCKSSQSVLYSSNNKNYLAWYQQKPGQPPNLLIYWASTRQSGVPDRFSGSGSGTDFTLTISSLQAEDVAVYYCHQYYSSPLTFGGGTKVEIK
In the case of B3, the “-TΔS1” value [7] is reported as 12 kcal/mol, the Kd [7] is reported as 16 nM and the ΔG1 [7] is reported as -10.6 kcal/mol. For the same binder, the ΔH1 [7] was -22.6 kcal/mol, the “-TΔS2” value [8] was -4.3 kcal/mol and the Kd [8] was 250 nM. For the same binder, the ΔG2 [8] was -9 kcal/mol and the ΔH2 [8] was -4.7 kcal/mol.

B4: mAb CIS42 (antibody, V domains shown)
VH: QVQLVQSGSELKKPGASVKVSCKTSGYTFTTYAMNWVRQAPGQGLEWMGWINTNTGNPTYAPGFTGRFVFSFDTSVSTAYLQISSLKAEDTAVYYCARVYSYGVPFDYWGQGTLVTVSS
VL: QSVLTQPASVSGSPGQSITISCTATSSNVGSFNLVSWYQHHPGKAPKLIIHEVSKRPSGASNRFSGSKSGNTASLTISGLQAEDEADYYCCSYVGSDTWVFGGGTKLTVL
B4 was tested, and the Kd [9] was 51 nM, the binding result [3] was “binds” and the “EC50 (read off the curve)” value [4] was roughly 5 ng/mL. The “-TΔS” value [10] was 12.8 kcal/mol, the ΔG [10] was -9.9 kcal/mol and the ΔH [10] was -22.7 kcal/mol. For the same binder, the Kd [5] was 0.76 nM.

B5: mAb CIS23 (antibody, V domains shown)
VH: EVQLVESGGGVVQPGRSLRLSCAASGFTFSSYGMYWVRQAPGKGLEWVALISHDGSNKFYADSVKGRFTISRDNSKNTLYLQMNSLRAEDTAVYYCAKDLGYSSSWGYFDYWGQGTLVTVSS
VL: EIVLTQSPATLSLSPGERATLSCRASQSVSSYLAWYQQKPGQAPRLLIYDASNRATGIPARFSGSGSGTDFTLTISSLEPEDFAVYYCQQRSNWYTFGQGTKLEIK
With B5 the binding result [3] was “binds”, the “-TΔS” value [11] was 13.1 kcal/mol and the ΔG [11] was -10.4 kcal/mol. It also gave a ΔH [11] of -23.5 kcal/mol.

B6: mAb10 (antibody, human IgG1, kappa, V domains shown)
VH: EVQLVESGGGVVQPGRSLRLSCEASGFTFSTYGMHWVRQAPGKGLEWVAIIWHDGSKKYHADSVRGRFTISRDNSKNTLYLQMNSLRAEDTAVYFCARVGNYGGDWGAGFDYWGQGTLVTVSS
VL: DIQMTQSPSFLSASVGDRVTIACRASQSISSWLAWYQQKPGKAPKLLIYHASSLESGVPSRFSGSASGTEFALTISSLQPDDFATYYCQQYSSYWTFGQGTKVEIKR
In the case of B6, the “-TΔS” value [12] is reported as 22.7 kcal/mol and the ΔH [12] is reported as -33 kcal/mol.

B7: CIS06 (antibody, V domains shown)
VH: QVQLVQSGPEVKKPGTSVKVSCKASGFTFSSSAVQWVRQARGQRLEWIGWIVVGSGKTKYAQNFQQRVTITRDMSTSTAYLELSTLRSEDTAVYYCAAVVNWNDESGFDPWGQGTLVTVSS
VL: DIQMTQSPSSLSAFVGDRVTITCRASQSIGTYLNWYQQKVGQAPKLLIYTASSLRSGVPSRFSGSGSGTDFTLTITSLQPEDFATYYCQQSYSTYTFGQGTKLEIK
notes: also called mAb CIS06
In the case of B7, the “EC50 (read off the curve)” value [4] is reported as roughly 100 ng/mL.
